Data reported in patent US20130109846A1 (published 2013).
Positions count from the first letter of the chain named.

B1: 1h-108 (other)
VL: DIQMTQSPSSLSASVGDRVTITCRASQYIGTALNWYQQKPGKAPKLLIYRRSHLQSGVPSRFSGSGSGTDFTLTISSLQPEDFATYYCQQIALTPYTFGQGTKVEIKR
B2: 1h-108-5 (other)
VL: B1 VL with M4I, K45E, R51G, A84V
B3: 1h-80-2 (other)
VL: DIQMTQSPSSLSASVGDRVTITCRASQRIGSNLAWYQQKPGKAPKLLIYWASLLQSGVPSRFSGSGSETDFTLTISSLQPEDFATYYCQQTRSAPFAFGQGTKVEIKR
B4: 1h-80 (other)
VL: B3 VL with E68G, A97T
B5: 1h-83 (other)
VL: B3 VL with R28S, S31H, N32S, A34V, P59S, E68G, T91S, S93A, A97T
B6: 1h-80-7 (other)
VL: B3 VL with E68G, T69S, Q90E, A97T
B7: 1h-81 (other)
VL: B3 VL with R28E, G30D, S31H, N32G, L53R, E68G, T91V, R92V, S93A, A97T
B8: 1h-87 (other)
VL: B3 VL with R28S, S31K, N32S, A51V, E68G, T91I, R92V, A94R, A97T
B9: 1h-79 (other)
VL: B3 VL with R28P, S31H, N32S, L53T, E68G, T91M, R92L, S93R, A94T, A97T
B10: 1h-84 (other)
VL: DIQMTQSPSSLSASVGDRVTITCRASQSIGKGLMWYQQKPGKAPKLLIYWASMLQSGVPSRFSGSGSGTDFTLTISSLQPEDFATYYCQQSLRTPFTFGQGTEVEIKR
B11: 1h-238 (other)
VL: B10 VL with S28H, G30N, K31A, G32S, M34G, M53Q, S91M, L92V, E103K
B12: 1h-112 (other)
VL: B10 VL with S28H, G30N, K31A, G32S, M34G, K45R, M53Q, S91M, L92V, E103K
B13: 1h-203 (other)
VL: B10 VL with S28P, K31S, G32V, M34A, W50F, A51S, M53I, S91A, T94S, E103K
B14: 1h-85 (other)
VL: B10 VL with S28P, K31A, G32S, M34L, K45R, A51G, M53L, F83L, E103K
B15: 1h-36 (other)
VL: DIQMTQSPSSLSASVGDRVTITCRASRDIALDLLWYQQKPGKAPKLLIKGWSGLQSGVPSRFSGSGSGTDFTLTISSLQPEDFATYYCAQGWGRPVTFGQGTKVEIKR
B16: 1h-116 (other)
VL: DIQMTQSPSSLSASVGDRVTITCRASQSIYPFLEWYQQKPGKAPRLLIYFTSRLQSGVPSRFSGSGSGTDFTLTISSLQPEDFATYYCQQNATNPATFGQGTKVEIKR
B17: 1h-239-819 (other)
VL: B16 VL with S28A, Y30W, R45K, Q89L, A92V, G99S
B18: 1h-239-807 (other)
VL: B16 VL with Q27R, S28A, Y30W, R45K, Q89L, A92V, G99S
B19: 1h-239-840 (other)
VL: B16 VL with R45K, T51A, Q55A, Q89L, A92V, G99S
B20: 1h-239-856 (other)
VL: B16 VL with R45K, Q55R, S56H, Q89L, A92V, G99S
B21: 1h-239-851 (other)
VL: B16 VL with Q27R, S28N, R45K, Q89L, A92V, G99S
B22: 1h-239-829 (other)
VL: B16 VL with R45K, T51S, Q55A, Q89L, A92V, G99S
B23: 1h-239-828 (other)
VL: B16 VL with R45K, Q55R, S56E, Q89L, A92V, G99S
B24: 1h-239-833 (other)
VL: B16 VL with R45K, Q55R, S56A, Q89L, A92V, G99S
B25: 1h-239-869 (other)
VL: B16 VL with R45K, Q89L, A92V, T93Q, N94M, G99S
B26: 1h-239-817 (other)
VL: B16 VL with Q27K, S28P, R45K, Q89L, A92V, G99S
B27: 1h-239-859 (other)
VL: B16 VL with R45K, T51S, R53M, Q55A, Q89L, A92V, G99S
B28: 1h-239 (other)
VL: B16 VL with R45K
B29: 1h-239-832 (other)
VL: B16 VL with R45K, R53Y, Q55R, S56E, Q89L, A92V, G99S
B30: 1h-239-870 (other)
VL: B16 VL with R45K, Q89L, A92V, T93M, N94M, G99S
B31: 1h-239-857 (other)
VL: B16 VL with R45K, Q55A, S56A, Q89L, A92V, T97A, G99S
B32: 1h-239-804 (other)
VL: B16 VL with R45K, Q89L, A92V, T93S, N94M, G99S
B33: 1h-239-824 (other)
VL: B16 VL with R45K, Q55R, S56Q, Q89L, A92V, G99S
B34: 1h-239-809 (other)
VL: B16 VL with Q27R, S28P, Y30W, R45K, Q89L, A92V, G99S
B35: 1h-239-871 (other)
VL: B16 VL with R45K, Q89L, A92V, T93A, G99S
B36: 1h-239-847 (other)
VL: B16 VL with R45K, Q55A, S56Y, Q89L, A92V, G99S, K107R
B37: 1h-239-837 (other)
VL: B16 VL with R45K, Q55A, Q89L, A92V, G99S
B38: 1h-239-849 (other)
VL: B16 VL with R45K, R53K, Q55T, S56R, T69A, S77N, Q89L, A92V, G99S
B39: 1h-239-838 (other)
VL: B16 VL with R24Q, R45K, Q55A, S56R, Q89L, A92V, G99S, K103R
B40: 1h-239-816 (other)
VL: B16 VL with Q27R, S28T, R45K, Q89L, A92V, G99S
B41: 1h-239-815 (other)
VL: B16 VL with S28P, Y30W, R45K, Q89L, A92V, G99S
B42: 1h-82 (other)
VL: DIQMTQSPSSLSASVGDRVTITCRASQDIGLNLLWYQQKPGKAPTLLIYWSSMLQSGVPSRFSGSGSGTDFTLTISSLQPEDFATYYCQQGRMRPFTFGQGTKVEIKR
B43: 1h-109 (other)
VL: B42 VL with L31A, N32S, T45K, W50F, G91S, R92G
B44: 1h-207 (other)
VL: B1 VL with A32S, N34A, R50H, R51S, H53G, I91T, T94R, Y96F
B45: 1h-86 (other)
VL: B42 VL with L31Q, N32S, L34V, T45K, S51A, G91V, R92M, M93R
B46: 1h-90 (other)
VL: B10 VL with S28T, K31H, M34V, A51S, M53H, S91T, E103K
B47: 1h-110 (other)
VL: DIQMTQSPSSLSASVGDRVTITCRASRDIGHMLNWYQQKPGKAPKLLIWFGSVLQSGVPSRFSGSGSGTDFTLTISSLQPEDFATYYCVQGRLRPPTFGQGTKVEIKR

These binders were tested against human CD28 (human, UniProt P10747 19-220) (assay: cell-based or functional assay).
B1 was tested, and the “Luciferase assay (EC50)” value was 1900 nM and the “MLR assay (EC50)” value was 2700 nM.
For B2, the “Luciferase assay (EC50)” value was 1900 nM.
With B3 the “Luciferase assay (EC50)” value was 62 nM and the “MLR assay (EC50)” value was 550 nM.
For B4, the “Luciferase assay (EC50)” value was 685 nM and the “MLR assay (EC50)” value was 2000 nM.
With B5 the “Luciferase assay (EC50)” value was 1300 nM and the “MLR assay (EC50)” value was 1700 nM.
With B6 the “Luciferase assay (EC50)” value was 322 nM.
For B7, the “Luciferase assay (EC50)” value was 3300 nM.
In the case of B8, the “Luciferase assay (EC50)” value is reported as 1700 nM.
With B9 the “Luciferase assay (EC50)” value was 3800 nM and the “MLR assay (EC50)” value was 3200 nM.
For B10, the “Luciferase assay (EC50)” value was 1500 nM.
For B11, the “Luciferase assay (EC50)” value was 775 nM.
In the case of B12, the “Luciferase assay (EC50)” value is reported as 775 nM and the “MLR assay (EC50)” value is reported as 850 nM.
In the case of B13, the “Luciferase assay (EC50)” value is reported as 880 nM.
For B14, the “Luciferase assay (EC50)” value was 530 nM.
For B15, the “Luciferase assay (EC50)” value was 570 nM and the “MLR assay (EC50)” value was 1800 nM.
In the case of B16, the “Luciferase assay (EC50)” value is reported as 2500 nM and the “MLR assay (EC50)” value is reported as 2400 nM.
For B17, the “Luciferase assay (EC50)” value was 13 nM and the “MLR assay (EC50)” value was 11 nM.
For B18, the “Luciferase assay (EC50)” value was 7 nM and the “MLR assay (EC50)” value was 6 nM.
In the case of B19, the “Luciferase assay (EC50)” value is reported as 9 nM and the “MLR assay (EC50)” value is reported as 10 nM.
B20 was tested, and the “Luciferase assay (EC50)” value was 3 nM and the “MLR assay (EC50)” value was 1 nM.
With B21 the “Luciferase assay (EC50)” value was 5 nM and the “MLR assay (EC50)” value was 4 nM.
In the case of B22, the “Luciferase assay (EC50)” value is reported as 10 nM and the “MLR assay (EC50)” value is reported as 11 nM.
With B23 the “Luciferase assay (EC50)” value was 8 nM and the “MLR assay (EC50)” value was 14 nM.
In the case of B24, the “Luciferase assay (EC50)” value is reported as 8 nM and the “MLR assay (EC50)” value is reported as 7 nM.
For B25, the “MLR assay (EC50)” value was 2 nM.
With B26 the “Luciferase assay (EC50)” value was 7 nM and the “MLR assay (EC50)” value was 9 nM.
With B27 the “Luciferase assay (EC50)” value was 5 nM and the “MLR assay (EC50)” value was 4 nM.
For B28, the “Luciferase assay (EC50)” value was 1300 nM.
In the case of B29, the “Luciferase assay (EC50)” value is reported as 12 nM and the “MLR assay (EC50)” value is reported as 11 nM.
With B30 the “MLR assay (EC50)” value was 3 nM.
With B31 the “Luciferase assay (EC50)” value was 3 nM and the “MLR assay (EC50)” value was 1 nM.
B32 was tested, and the “Luciferase assay (EC50)” value was 5 nM and the “MLR assay (EC50)” value was 3 nM.
B33 was tested, and the “Luciferase assay (EC50)” value was 9 nM and the “MLR assay (EC50)” value was 6 nM.
B34 was tested, and the “Luciferase assay (EC50)” value was 6 nM and the “MLR assay (EC50)” value was 4 nM.
With B35 the “MLR assay (EC50)” value was 3 nM.
B36 was tested, and the “Luciferase assay (EC50)” value was 8 nM and the “MLR assay (EC50)” value was 5 nM.
With B37 the “Luciferase assay (EC50)” value was 9 nM and the “MLR assay (EC50)” value was 14 nM.
B38 was tested, and the “Luciferase assay (EC50)” value was 13 nM and the “MLR assay (EC50)” value was 10 nM.
For B39, the “Luciferase assay (EC50)” value was 4 nM and the “MLR assay (EC50)” value was 3 nM.
For B40, the “Luciferase assay (EC50)” value was 11 nM and the “MLR assay (EC50)” value was 13 nM.
With B41 the “Luciferase assay (EC50)” value was 10 nM and the “MLR assay (EC50)” value was 6 nM.
For B42, the “Luciferase assay (EC50)” value was 1900 nM.
For B43, the “Luciferase assay (EC50)” value was 1000 nM.
With B44 the “Luciferase assay (EC50)” value was 2600 nM.
In the case of B45, the “Luciferase assay (EC50)” value is reported as 400 nM.
In the case of B46, the “Luciferase assay (EC50)” value is reported as 1000 nM.
B47 was tested, and the “Luciferase assay (EC50)” value was 4100 nM.
